System: whole blood
Test: Varying concentrations assay of hemostatic agent in the microfluidic hemostasis device (coagulation time at the vascular injury site)
Assay type: cell-based
Description: Biomolecules such as tissue factor (TF) can be used as a surrogate for hemostatic agents. TF is the primary cellular initiator of blood coagulation via the extrinsic pathway. After vessel injury, the TF:VIIa complex activates the coagulation protease cascade, which leads to fibrin deposition and activation of platelets (see FIGS. 7-8). TF expression by nonvascular cells plays an essential role in hemostasis by activating blood coagulation. In contrast, TF expression by vascular cells induces intravascular thrombosis. […] TF can be allowed to adhere to the surface of the channels by incubating at 37° C. and 5% CO2. Saline wash can be initiated to wash off any residual TF.
In order to mimic these conditions observed, TNF-α at a concentration of 10 μg/ml can be injected near the wound site of the tissue channel (e.g., outer channel) from the top inlet of the device. It should be noted that endothelial cells cultured in the vascular channel (e.g., central channel) can grow near the wound site opening, and also into the tissue area. Injection of TNF-α can activate the endothelial cells adjacent to the injection site to start expressing TF. At about 8 hour after activation, hemostasis restoration experiments can be initiated.
Whole blood can be kept anticoagulated using corn trypsin inhibitor (CTI). […] The time taken to completely repair (block) the opening can be recorded (FIG. 8). […]

B1: Tissue factor: primary cellular initiator of blood coagulation via the extrinsic pathway, used as a surrogate for hemostatic agents (protein, UniProt P13726 33-295, looked up)
Tissue factor: SGTTNTVAAYNLTWKSTNFKTILEWEPKPVNQVYTVQISTKSGDWKSKCFYTTDTECDLTDEIVKDVKQTYLARVFSYPAGNVESTGSAGEPLYENSPEFTPYLETNLGQPTIQSFEQVGTKVNVTVEDERTLVRRNNTFLSLRDVFGKDLIYTLYYWKSSSSGKKTAKTNTNEFLIDVDKGENYCFSVQAVIPSRTVNRKSTDSPVECMGQEKGEFREIFYIIGAVVFVVIILVIILAISLHKCRKAGVGQSWKENSPLNVS
- time to coagulate (coagulation time of the whole blood at the vascular injury site) (Tissue factor at higher concentration of 10 μg/ml (extreme dose scenario)): less than 5 minutes
- time to coagulate (coagulation time of the whole blood at the vascular injury site) (Tissue factor coated at 10 ng/ml in the tissue channel): ≥ 5 min

From patent publication US20160161469A1, “SYNTHETIC MICROFLUIDIC SYSTEMS FOR WOUND HEALING” (CFD Research Corporation, priority 2013, published 2016)
